Experimental findings from article PMC5052687 are described below.

B1: MCvar1 PfEMP1 CIDRα2.8 domain (residues 576-745, mutant [Plasmodium falciparum] / human CD36 ectodomain (residues 35-439) with C-terminal BAP tag, biotinylated [modified: biotin on the BAP tag (in vitro, BirA ligase); biotin … (parent)
chain 1: EDKIMSYNAFFWMWVHDMLIDSIKWRDEHGRCINKDKGKTCIKGCNKKCISFQKWVEQKKTEWGKIKDHFRKQKDIPKDWTHDDFLQTLLMKDLLLEIIQDTYGDANEIKRIEALLEQAGVGGIDFAALAGLYTKGFVAEKDTTIDKLLQHEQKEADKCLKTHTDDTCPP
chain 2: QKTIKKQVVLEEGTIAFKNWVKTGTEVYRQFWIFDVQNPQEVMMNSSNIQVKQRGPYTYRVRFLAKENVTQDAEDNTVSFLQPNGAIFEPSLSVGTEADNFTVLNLAVAAASHIYQNQFVQMILNSLINKSKSSMFQVRTLRELLWGYRDPFLSLVPYPVTTTVGLFYPYNNTADGVYKVFNGKDNISKVAIIDTYKGKRNLSYWESHCDMINGTDAASFPPFVEKSQVLQFFSSDICRSIYAVFESDVNLKGIPVYRFVLPSKAFASPVENPDNYCFCTEKIISKNCTSYGVLDISKCKEGRPVYISLPHFLYASPDVSEPIDGLNPNEEEHRTYLDIEPITGFTLQFAKRLQVNLLVKPSEKIQVLKNLKRNYIVPILWLNETGTIGDEKANMFRSQVTGKIN

The variants in the test derive from B1. Briefly: SPR. To be noted: with human CD36 ectodomain (residues 35-439) with C-terminal BAP tag, plateau of the top sensorgram (highest analyte concentration of the series), concentrations not given, parent: 62, read off a plot.
chain 1 E97A: the response was found to be 40 RU.

chain 1 Q73A: the response turned out to be 27 RU.
